This experiment deals with Cyno Gal-3 (Macaca fascicularis). The experiment in a line: SPR; kinetic fit, which the text calls poor for the monkey sample; immobilised partner and concentrations not given.

B1: SIF001 (antibody, V domains shown)
VH: QVQLVQSGSELKKPGASVKVSCKASGYTFTNYGMNWVRQAPGQGLEWMGWINTYTGEPTYADDFKGRFVFSLDTSVSTAYLQISSLKNEDMAVYFCARYAMDYWGQGTLVTVSS
VL: EAVVTQEPSLTVSPGGTVTLTCRSSTGAVTTSNYANWVQQKPGQAFTGLIGGTSNRAPGTPARFSGSLLGDKAALTLLGAQPEDEAEYFCALWYSTHYVFGGGTKLTVL
Turning to B1, the Kd (usually the constant that tells how readily two partners part at equilibrium) came to 64.1 nM.

Values taken from patent US20260034233A1.
